Paper PMC11754657

How the values were obtained:
[1] = target: rabbit skeletal muscle filamentous actin (rabbit) (UniProt P68135)
[2] = target: rabbit skeletal muscle filamentous actin (rabbit) (UniProt P68135); remark: listed apart in the source

velocity of actin filaments in the in vitro gliding filament assay (motor domain held by anti-GFP, 10 mM KCl, 2 mM ATP, 30 °C) [1] [nm/s]	K ATPase: F-actin at half-maximal activation of the steady-state ATPase (NADH-coupled assay, 20 °C, 2 mM MgATP, 50 mM KCl) [2] [µM]	kcat: extrapolated maximum rate of the F-actin activated steady-state ATPase (NADH-coupled assay, 20 °C) [2] [s⁻¹]	Substance
216	114	0.87	jordan (p.D1647G) MYO15A motor domain complex M15-2IQ:ELC:RLC (1:1:1) (from UniProt P60661 1-151)
473	29.1	5.8	wild-type MYO15A motor domain complex M15-2IQ:ELC:RLC (1:1:1) (from UniProt P60661 1-151)
